# Laboratory results: paper PMC3902126
# Read-outs that look alike come from different tables or passages of the source.
# Assays:
# [1] = target: Brucella abortus RicA (Rab2 interacting conserved protein A), His6-RicA (1-175) (Brucella abortus); assay: ITC
# [2] = target: Brucella abortus RicA (Rab2 interacting conserved protein A), His6-RicA (1-175) (Brucella abortus); assay: ITC; remark: listed apart in the source
substance,measurement,setting,value
Homo sapiens Rab2 (1-212) (from UniProt P61019 1-212) (natural protein),Kd,[1],40 µM
same,Kd,[2],36 µM
